Laboratory results as given in publication PMC5319863 (Nature, 2016).
Where a chain is given by its changes, count along the chain named. Names and notes keep the numbering of the source. Each block holds one binder with its values, some of them ahead of it.

Legend:
[1] = biological target: T1, human Izumo1_(22-254), wild type (human, UniProt Q8IYV9-1 22-254); assay: BLI
Q130A Izumo1_(22-254) = Q130A Izumo1_(22-254) (human, UniProt Q8IYV9-1 22-254, Q130A); assay: BLI
E71A Izumo1_(22-254) = E71A Izumo1_(22-254) (human, UniProt Q8IYV9-1 22-254, E71A); assay: BLI
R160A Izumo1_(22-254) = R160A Izumo1_(22-254) (human, UniProt Q8IYV9-1 22-254, R160A); assay: BLI
D72A Izumo1_(22-254) = D72A Izumo1_(22-254) (human, UniProt Q8IYV9-1 22-254, D72A); assay: BLI
H157A Izumo1_(22-254) = H157A Izumo1_(22-254) (human, UniProt Q8IYV9-1 22-254, H157A); assay: BLI
E71K Izumo1_(22-254) = E71K Izumo1_(22-254) (human, UniProt Q8IYV9-1 22-254, E71K); assay: BLI
R160E Izumo1_(22-254) = R160E Izumo1_(22-254) (human, UniProt Q8IYV9-1 22-254, R160E); assay: BLI
[2] = biological target: T1, human Izumo1_(22-254), wild type; assay: SPR

T1 sequence (Q8IYV9 22-254): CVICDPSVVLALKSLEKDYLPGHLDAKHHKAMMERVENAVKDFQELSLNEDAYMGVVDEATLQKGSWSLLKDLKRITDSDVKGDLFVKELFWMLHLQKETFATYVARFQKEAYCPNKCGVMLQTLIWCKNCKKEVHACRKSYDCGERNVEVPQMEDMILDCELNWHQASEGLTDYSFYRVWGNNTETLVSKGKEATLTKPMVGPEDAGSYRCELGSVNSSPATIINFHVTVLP
Chain of H157A Izumo1_(22-254) (Q8IYV9 22-254 H157A): as the sequence (Q8IYV9 22-254) above, with H136A counted along it
Chain of D72A Izumo1_(22-254) (Q8IYV9 22-254 D72A): as the sequence (Q8IYV9 22-254) above, with D51A counted along it
Chain of Q130A Izumo1_(22-254) (Q8IYV9 22-254 Q130A): as the sequence (Q8IYV9 22-254) above, with Q109A counted along it
Chain of E71A Izumo1_(22-254) (Q8IYV9 22-254 E71A): as the sequence (Q8IYV9 22-254) above, with E50A counted along it
Chain of R160A Izumo1_(22-254) (Q8IYV9 22-254 R160A): as the sequence (Q8IYV9 22-254) above, with R139A counted along it
Chain of E71K Izumo1_(22-254) (Q8IYV9 22-254 E71K): as the sequence (Q8IYV9 22-254) above, with E50K counted along it
Chain of R160E Izumo1_(22-254) (Q8IYV9 22-254 R160E): as the sequence (Q8IYV9 22-254) above, with R139E counted along it

B1: E45A Juno_(20-228) (domain or fragment, human, UniProt A6ND01-1 20-228, looked up)
chain: GDELLNICMNAKHHKRVPSPEDKLYAECIPWKDNACCTLTTSWEAHLDVSPLYNFSLFHCGLLMPGCRKHFIQAICFYECSPNLGPWIQPVGSLGWEVAPSGQGERVVNVPLCQEDCEEWWEDCRMSYTCKSNWRGGWDWSQGKNRCPKGAQCLPFSHYFPTPADLCEKTWSNSFKASPERRNSGRCLQKWFEPAQGNPNVAVARLFAS
modifications: biotinylated with the EZ link sulfo-NHS-LC-biotinylation kit (BLI)
Kd [1]: 681 nM
koff [1]: 0.0247 s⁻¹
kon [1]: 37000 M⁻¹ s⁻¹

B5: E45K Juno_(20-228) (domain or fragment, human, UniProt A6ND01-1 20-228, looked up)
chain: B1 chain with A26K
modifications: biotinylated with the EZ link sulfo-NHS-LC-biotinylation kit (in the BLI assay only)
Kd [1]: 2800 nM
koff [1]: 0.0624 s⁻¹
kon [1]: 23000 M⁻¹ s⁻¹

B7: L81A Juno_(20-228) (domain or fragment, human, UniProt A6ND01-1 20-228, looked up)
chain: B1 chain with A26E, L62A
modifications: biotinylated with the EZ link sulfo-NHS-LC-biotinylation kit (BLI)
Kd [1]: 9100 nM
koff [1]: 0.349 s⁻¹
kon [1]: 40000 M⁻¹ s⁻¹

These reach a lower Kd [1]. Values come first.

Kd [1]: 361 nM
koff [1]: 0.0412 s⁻¹
kon [1]: 114000 M⁻¹ s⁻¹
B2: W62A Juno_(20-228) (domain or fragment, human, UniProt A6ND01-1 20-228, looked up)
chain: B1 chain with A26E, W43A
modifications: biotinylated with the EZ link sulfo-NHS-LC-biotinylation kit (BLI)

Kd [1]: 134 nM
koff [1]: 0.0242 s⁻¹
kon [1]: 181000 M⁻¹ s⁻¹
B6: K163E Juno_(20-228) (domain or fragment, human, UniProt A6ND01-1 20-228, looked up)
chain: B1 chain with A26E, K144E
modifications: biotinylated with the EZ link sulfo-NHS-LC-biotinylation kit (in the BLI assay only)

Kd [1]: 97 nM
koff [1]: 0.0133 s⁻¹
kon [1]: 138000 M⁻¹ s⁻¹
B3: K163A Juno_(20-228) (domain or fragment, human, UniProt A6ND01-1 20-228, looked up)
chain: B1 chain with A26E, K144A
modifications: biotinylated with the EZ link sulfo-NHS-LC-biotinylation kit (BLI)

Kd (Q130A Izumo1_(22-254)): 56 nM
koff (Q130A Izumo1_(22-254)): 0.0068 s⁻¹
kon (Q130A Izumo1_(22-254)): 127000 M⁻¹ s⁻¹
Kd (E71A Izumo1_(22-254)): 96 nM
koff (E71A Izumo1_(22-254)): 0.0137 s⁻¹
kon (E71A Izumo1_(22-254)): 143000 M⁻¹ s⁻¹
Kd (R160A Izumo1_(22-254)): 730 nM
koff (R160A Izumo1_(22-254)): 0.0563 s⁻¹
kon (R160A Izumo1_(22-254)): 78000 M⁻¹ s⁻¹
Kd (D72A Izumo1_(22-254)): 71 nM
koff (D72A Izumo1_(22-254)): 0.0126 s⁻¹
kon (D72A Izumo1_(22-254)): 178000 M⁻¹ s⁻¹
Kd (H157A Izumo1_(22-254)): 1800 nM
koff (H157A Izumo1_(22-254)): 0.079 s⁻¹
kon (H157A Izumo1_(22-254)): 51000 M⁻¹ s⁻¹
Kd (E71K Izumo1_(22-254)): 119 nM
koff (E71K Izumo1_(22-254)): 0.0195 s⁻¹
kon (E71K Izumo1_(22-254)): 165000 M⁻¹ s⁻¹
Kd [1]: 59 nM
koff [1]: 0.0067 s⁻¹
kon [1]: 115000 M⁻¹ s⁻¹
Kd (R160E Izumo1_(22-254)): 2200 nM
koff (R160E Izumo1_(22-254)): 0.0512 s⁻¹
kon (R160E Izumo1_(22-254)): 32000 M⁻¹ s⁻¹
Kd [2]: 48 nM
koff [2]: 0.0194 s⁻¹
kon [2]: 420000 M⁻¹ s⁻¹
B4: human Juno_(20-228), wild type (domain or fragment, UniProt A6ND01-1 20-228, looked up)
chain: B1 chain with A26E
modifications: biotinylated with the EZ link sulfo-NHS-LC-biotinylation kit (in the BLI assay only)
